We go through 11 molecules from paper PMC4161438 (PLoS Pathogens, 2014).

The target of one assay is T1, elastase (Homo sapiens, UniProt P08246).
T1 construct: purchased Elastin Products Company, Inc. (Owensville, MO, USA)
T1 sequence (P08246 30-267): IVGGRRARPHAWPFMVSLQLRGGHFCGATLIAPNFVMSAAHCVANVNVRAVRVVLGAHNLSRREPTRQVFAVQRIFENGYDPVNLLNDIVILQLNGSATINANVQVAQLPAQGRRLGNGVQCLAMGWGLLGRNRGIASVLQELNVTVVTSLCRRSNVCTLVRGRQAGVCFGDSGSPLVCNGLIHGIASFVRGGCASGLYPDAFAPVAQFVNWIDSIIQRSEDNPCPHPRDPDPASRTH
The following applies: pathologic conditions associated with neutrophil dysfunction; ref [22]; cited from earlier work. An excerpt:
Neutrophils also release granule contents containing enzymes such as elastase, proteinase-3, and cathepsin G. Elastase, a particularly inflammatory enzyme, interferes with thrombomodulin function, and cleaves TF pathway inhibitor (TFPI), the physiological inhibitor of the extrinsic pathway. […] Elastase also induces proteinase-activated receptor activation, contributes to cytokine production and processing, inactivates metalloprotease inhibitors, deg ...

For the next assay, the system named is inflamed microvessels. Further details: method as in PMID 8400269. The following applies: intravital microscopy of inflamed microvessels; ref [50]; cited from earlier work.
The test system of a further assay is neutrophil. Particulars: migration induced by PAF, fMLP or IL-8; ref [49]–[51]; cited from earlier work. An excerpt:
Once released, serine protease may bind to the cell surface and remains relatively inaccessible to inhibitors, in contrast to soluble enzymes, [48]. Elastase and other serine proteases reportedly modulate several functions of neutrophils, including chemokine activation and degradation, cell recruitment, receptor activation, activation of lymphocytes, NET formation, and cleavage of adhesion molecules, apoptotic proteins, and anticoagulants. Assay ...

Assay [1] concerns neutrophils. The experiment in a line: NETs formation. Particulars: PMA 5 nM, 3 h, no inhibitor. The format is cell-based, human. As for the experimental part: Left panel, non-activated neutrophil (no PMA). Formation of NETs was visualized under confocal microscopy, using antibody against citrullinated histone. Representative experiment is shown (4 different donors). B) Quantification. Performed as described in Methods.
(§1) Whole blood (5 mL collected in 0.5 mL of 3.2% sodium citrate) from healthy donors was diluted in an equal volume of PBS, layered over 5 mL of HISTOPAQUE solution (10771, Sigma Aldrich), and centrifuged for 40 min, at 400×g, at room temperature. The lower interphase having granulocytes was collected and transferred to a 15-ml Falcon tube and resuspended in 10 ml ammonium chloride lysis buffer (1.7 M NH4Cl, […], 1 mM EDTA) to lyse red blood cells. Lysis was carried out twice followed by centrifugation for 10 min at 400×g. […]
Cells were fixed with 500 µl of 4% paraformaldehyde (final concentrations) for 10 min, washed 3 times with PBS and incubated for 10 min with blocking solution (PBS, 10%FBS, 5 mg/ml BSA). […] NETs were quantified according to Farley et al. Briefly, NETs were identified on digitalized images as Hoechst-positive fibrils emanating from cells with an overall length at least twice as long as the cell diameter and were counted for at least two fields of view per variable. Results were expressed as the percentage of NETs/total number of granulocytes.

Assay [2] deals with neutrophils. The experiment in a line: Neutrophil-induced coagulation. In kind it is cell-based, human. The following applies: neutrophils with PMA 50 nM, 3 h; 370 sec without PMA. Here is the method: (§2) A) Platelet aggregation. Washed human platelets were stimulated with elastase only (500 nM, left panel), or cathepsin G only (110 nM, middle tracing), or elastase followed by cathepsin G (right tracing). […] Aggregation response was monitored by turbidimetry using a Lumi-Aggregometer. D) TFPI cleavage. […] After 2 h, reactions were stopped by addition of LDS loading buffer (under reducing conditions, 10 mM DTT), boiled for 5 min, and loaded in 4–12% Nu-PAGE gel. Gels were Coomassie Blue-stained. E) Neutrophil-induced coagulation. […] Fifty µl of this suspension was added to 50 µl of plasma, and reactions were started by addition of CaCl2 (12.5 mM, final concentration)(*, p<0.05).
as §1, with “400×g. Neutrophils were washed with PBS and resuspended at 1×10^6 cells/mL in high glucose DMEM (GIBCO). Neutrophils were kept on ice.” for “400×g.”

The subject of a further assay is bacterial strains. The experiment in a line: Minimum inhibitory concentration (MIC), control over all strains. The format is cell-based. The following applies: ciprofloxacin quality control, 1024-0 ng/ml, each strain; not shown.
The subject of assay [3] is normal human plasma. As to the kind of experiment: PT. The format is biochemical. The following applies: heparin control 100 µg/ml; not shown. Here is the method: (§3) aPTT and PT were evaluated on a STart 4 stago coagulometer (Diagnostica Stago, Parsippany, NJ, USA). Freeze-dried, citrated, normal human plasma was resuspended in ultra-pure water. […] Then, 50 µl of pre-warmed aPTT reagent (STA PTT; Diagnostica Stago, Asnières sur Seine, France) was added and incubated for an additional 2 min. CaCl2 (50 µl at 25 mM) was added to start reactions. […] Then, 100 µl of the PT reagent (NEOplastine CI plus; Diagnostica Stago) was added. Time for clot formation was recorded in duplicate.

For assay [4], the system named is normal human plasma. The experiment in a line: aPTT. The format is biochemical. Particulars: heparin control 10 µg/ml; not shown. Here is the method: as §3
In assay [5] the target is T2, neutrophil elastase (Homo sapiens, UniProt P08246).
T2 chain: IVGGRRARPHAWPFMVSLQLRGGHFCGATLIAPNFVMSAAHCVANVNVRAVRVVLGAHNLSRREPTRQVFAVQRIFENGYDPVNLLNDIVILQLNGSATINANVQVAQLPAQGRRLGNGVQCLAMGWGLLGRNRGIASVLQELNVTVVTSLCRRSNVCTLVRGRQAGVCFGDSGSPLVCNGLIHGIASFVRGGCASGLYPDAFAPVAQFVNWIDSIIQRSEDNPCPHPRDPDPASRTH
The experiment in a line: enzyme inhibition assay (chromogenic substrate, Cheng-Prusoff).

Assay [6] has as its target T2, neutrophil elastase. The experiment in a line: SPR.
The subject of assay [7] is human neutrophil elastase. The experiment in a line: TFPI cleavage by elastase (SDS/PAGE). In kind it is biochemical. Particulars: elastase 0.8 µg/ml, TFPI 1 µg, 2 h at RT, no inhibitor. As for the experimental part:
as §2
After 2 h at RT, reactions were stopped by addition of Laemmli buffer (supplemented with dithiothreitol) and boiled for 5 min. Proteins were separated by 4% to 12% NuPAGE (MES buffer); gels were stained with Coomassie Blue R-250 and destained with 40% methanol. See Blue molecular weight (mol. wt.) markers were used (Invitrogen).

Assay [8] relates to washed human platelets. The experiment in a line: Platelet aggregation, elastase followed by cathepsin G. Particulars: elastase 500 nM, no inhibitor. The format is cell-based. Here is the method: as §2
(§4) Platelet-rich plasma was obtained by plateletpheresis from medication-free platelet donors at the Department of Transfusion Medicine (NIH blood bank). Washing of platelets and platelet aggregation were performed in a Lumi-aggregometer (Chronol-Log, Haverstown, MD, USA) as described, [87].

Assay [9] deals with washed human platelets. As to the kind of experiment: Platelet aggregation, cathepsin G-induced. The format is cell-based. Particulars: low dose cathepsin G 110 nM, no inhibitor. Here is the method:
as §2, §4

A further assay relates to monocyte-like cells. Set-up: method as in PMID 16352738. Particulars: internalized by monocyte-like cells, ref [57], cited from earlier work.

Regarding `Cc1c(-c2ccnn2C)cc(C(=O)NCc2ccc(S(C)(=O)=O)cn2)c(=O)n1-c1cccc(C(F)(F)F)c1` [AZD9668], at elastase, the clinical trial results is reported as “mixed results”. `CO[C@H]1C(=O)N2C(C(=O)N3CCC[C@H]3C(=O)O)=C(COC(C)=O)CS(=O)(=O)[C@H]12` [L658758, reference compound]: the neutrophil transmigration result in the assay on inflamed microvessels was “inhibition of neutrophil transmigration”. Further, in the assay on neutrophil, the chemotactic neutrophil functions result is recorded as “blocks chemotactic neutrophil functions”.

Consider `CCCCCCCCCCCCCC(=O)O[C@@H]1[C@@H](C)[C@@]2(O)[C@@H](C=C(CO)C[C@]3(O)C(=O)C(C)=C[C@@H]23)[C@@H]2C(C)(C)[C@]12OC(C)=O` [PMA, Phorbol 12-myristate 13-acetate, reference compound], for which the “induction of NETs” value with neutrophils [1] is reported as “induces a strong response”. The molecule further displayed a clotting time in the assay on neutrophils [2] of 250 s. Consider `O=C(O)c1cn(C2CC2)c2cc(N3CCNCC3)c(F)cc2c1=O` [ciprofloxacin], for which, in the assay on bacterial strains, the MIC is under 1 µg/mL. Consider `CC(C)(C)C(=O)Oc1ccc(S(=O)(=O)Nc2ccccc2C(=O)NCC(=O)O)cc1` [sivelestat], for which the clinical trial results on elastase is listed as “mixed results”.

For the molecule heparin, the PT entry with normal human plasma [3] is recorded as “prolonged”. Besides, the aPTT entry in the assay with normal human plasma [4] is “prolonged”.

B1: Eglin C: pharmacologic inhibitor of elastase (protein, UniProt P01051 1-70, looked up)
Eglin C: TEFGSELKSFPEVVGKTVDQAREYFTLHYPQYDVYFLPEGSPVTLDLRYNRVRVFYNPGTNVVNHVPHVG
Consider B1, for which, in the assay on inflamed microvessels, the neutrophil transmigration entry is on record as “inhibition of neutrophil transmigration”. The chemotactic neutrophil functions entry with neutrophil was “blocks chemotactic neutrophil functions”.

B2: Agaphelin 1-58 (protein)
chain: DINSEMATCACQLIYRPVCASNNESYSNECVLKCASETPTGRSIGLHKVKDGNCNGEF
As to B2, the affinity with neutrophil elastase [5] corresponds to a Ki of 9.22 nM. In the assay with neutrophil elastase [6], this molecule came in with a Kd of 17.4 nM.

B3: elastase: neutrophil elastase, enzyme used as stimulus (protein, UniProt P08246 30-267, looked up)
Neutrophil elastase: IVGGRRARPHAWPFMVSLQLRGGHFCGATLIAPNFVMSAAHCVANVNVRAVRVVLGAHNLSRREPTRQVFAVQRIFENGYDPVNLLNDIVILQLNGSATINANVQVAQLPAQGRRLGNGVQCLAMGWGLLGRNRGIASVLQELNVTVVTSLCRRSNVCTLVRGRQAGVCFGDSGSPLVCNGLIHGIASFVRGGCASGLYPDAFAPVAQFVNWIDSIIQRSEDNPCPHPRDPDPASRTH
For the molecule B3, the “TFPI cleavage by elastase” value in [7] is recorded as “cleaves TFPI”. The “shape change or aggregation by elastase only” value in the assay with washed human platelets [8] is “does not promote shape change or aggregation”.

B4: cathepsin G: neutrophil protease used as platelet agonist (protein, UniProt P08311 21-244, looked up)
Cathepsin G: IIGGRESRPHSRPYMAYLQIQSPAGQSRCGGFLVREDFVLTAAHCWGSNINVTLGAHNIQRRENTQQHITARRAIRHPQYNQRTIQNDIMLLQLSRRVRRNRNVNPVALPRAQEGLRPGTLCTVAGWGRVSMRRGTDTLREVQLRVQRDRQCLRIFGSYDPRRQICVGDRRERKAAFKGDSGGPLLCNNVAHGIVSYGKSSGVPPEVFTRVSSFLPWIRTTMRS
As for B4, the “platelet activation by cathepsin G only” value in the assay on washed human platelets [9] is recorded as “activate platelets”.

B5: secretory leukocyte proteinase inhibitor (protein, UniProt P03973 26-132, looked up)
Antileukoproteinase: SGKSFKAGVCPPKKSAQCLRYKKPECQSDWQCPGKKRCCPDTCGIKCLDPVDTPNPTRRKPGKCPVTYGQCLMLNPPNFCEMDGQCKRDLKCCMGMCGKSCVSPVKA
Regarding B5, the chemotactic neutrophil functions result in the assay with neutrophil is “blocks chemotactic neutrophil functions”. For the same molecule, the p65 binding result with monocyte-like cells (binds NF-κB binding sites) is given as “inhibit p65 binding”. In addition, the “TNF-α and IL-8 generation” value in the assay with monocyte-like cells was “promote inhibition of TNF-α and IL-8 generation”.
